The source of these data is article doi:10.1101/2020.07.12.199869.

The assay concerns the target low-density lipoprotein receptor-related protein 1 (mouse (endogenous in bEnd3)). As to the kind of experiment: proximity ligation.

Chain of low-density lipoprotein receptor-related protein 1 (mouse (endogenous in bEnd3)) (Q91ZX7 20-4545): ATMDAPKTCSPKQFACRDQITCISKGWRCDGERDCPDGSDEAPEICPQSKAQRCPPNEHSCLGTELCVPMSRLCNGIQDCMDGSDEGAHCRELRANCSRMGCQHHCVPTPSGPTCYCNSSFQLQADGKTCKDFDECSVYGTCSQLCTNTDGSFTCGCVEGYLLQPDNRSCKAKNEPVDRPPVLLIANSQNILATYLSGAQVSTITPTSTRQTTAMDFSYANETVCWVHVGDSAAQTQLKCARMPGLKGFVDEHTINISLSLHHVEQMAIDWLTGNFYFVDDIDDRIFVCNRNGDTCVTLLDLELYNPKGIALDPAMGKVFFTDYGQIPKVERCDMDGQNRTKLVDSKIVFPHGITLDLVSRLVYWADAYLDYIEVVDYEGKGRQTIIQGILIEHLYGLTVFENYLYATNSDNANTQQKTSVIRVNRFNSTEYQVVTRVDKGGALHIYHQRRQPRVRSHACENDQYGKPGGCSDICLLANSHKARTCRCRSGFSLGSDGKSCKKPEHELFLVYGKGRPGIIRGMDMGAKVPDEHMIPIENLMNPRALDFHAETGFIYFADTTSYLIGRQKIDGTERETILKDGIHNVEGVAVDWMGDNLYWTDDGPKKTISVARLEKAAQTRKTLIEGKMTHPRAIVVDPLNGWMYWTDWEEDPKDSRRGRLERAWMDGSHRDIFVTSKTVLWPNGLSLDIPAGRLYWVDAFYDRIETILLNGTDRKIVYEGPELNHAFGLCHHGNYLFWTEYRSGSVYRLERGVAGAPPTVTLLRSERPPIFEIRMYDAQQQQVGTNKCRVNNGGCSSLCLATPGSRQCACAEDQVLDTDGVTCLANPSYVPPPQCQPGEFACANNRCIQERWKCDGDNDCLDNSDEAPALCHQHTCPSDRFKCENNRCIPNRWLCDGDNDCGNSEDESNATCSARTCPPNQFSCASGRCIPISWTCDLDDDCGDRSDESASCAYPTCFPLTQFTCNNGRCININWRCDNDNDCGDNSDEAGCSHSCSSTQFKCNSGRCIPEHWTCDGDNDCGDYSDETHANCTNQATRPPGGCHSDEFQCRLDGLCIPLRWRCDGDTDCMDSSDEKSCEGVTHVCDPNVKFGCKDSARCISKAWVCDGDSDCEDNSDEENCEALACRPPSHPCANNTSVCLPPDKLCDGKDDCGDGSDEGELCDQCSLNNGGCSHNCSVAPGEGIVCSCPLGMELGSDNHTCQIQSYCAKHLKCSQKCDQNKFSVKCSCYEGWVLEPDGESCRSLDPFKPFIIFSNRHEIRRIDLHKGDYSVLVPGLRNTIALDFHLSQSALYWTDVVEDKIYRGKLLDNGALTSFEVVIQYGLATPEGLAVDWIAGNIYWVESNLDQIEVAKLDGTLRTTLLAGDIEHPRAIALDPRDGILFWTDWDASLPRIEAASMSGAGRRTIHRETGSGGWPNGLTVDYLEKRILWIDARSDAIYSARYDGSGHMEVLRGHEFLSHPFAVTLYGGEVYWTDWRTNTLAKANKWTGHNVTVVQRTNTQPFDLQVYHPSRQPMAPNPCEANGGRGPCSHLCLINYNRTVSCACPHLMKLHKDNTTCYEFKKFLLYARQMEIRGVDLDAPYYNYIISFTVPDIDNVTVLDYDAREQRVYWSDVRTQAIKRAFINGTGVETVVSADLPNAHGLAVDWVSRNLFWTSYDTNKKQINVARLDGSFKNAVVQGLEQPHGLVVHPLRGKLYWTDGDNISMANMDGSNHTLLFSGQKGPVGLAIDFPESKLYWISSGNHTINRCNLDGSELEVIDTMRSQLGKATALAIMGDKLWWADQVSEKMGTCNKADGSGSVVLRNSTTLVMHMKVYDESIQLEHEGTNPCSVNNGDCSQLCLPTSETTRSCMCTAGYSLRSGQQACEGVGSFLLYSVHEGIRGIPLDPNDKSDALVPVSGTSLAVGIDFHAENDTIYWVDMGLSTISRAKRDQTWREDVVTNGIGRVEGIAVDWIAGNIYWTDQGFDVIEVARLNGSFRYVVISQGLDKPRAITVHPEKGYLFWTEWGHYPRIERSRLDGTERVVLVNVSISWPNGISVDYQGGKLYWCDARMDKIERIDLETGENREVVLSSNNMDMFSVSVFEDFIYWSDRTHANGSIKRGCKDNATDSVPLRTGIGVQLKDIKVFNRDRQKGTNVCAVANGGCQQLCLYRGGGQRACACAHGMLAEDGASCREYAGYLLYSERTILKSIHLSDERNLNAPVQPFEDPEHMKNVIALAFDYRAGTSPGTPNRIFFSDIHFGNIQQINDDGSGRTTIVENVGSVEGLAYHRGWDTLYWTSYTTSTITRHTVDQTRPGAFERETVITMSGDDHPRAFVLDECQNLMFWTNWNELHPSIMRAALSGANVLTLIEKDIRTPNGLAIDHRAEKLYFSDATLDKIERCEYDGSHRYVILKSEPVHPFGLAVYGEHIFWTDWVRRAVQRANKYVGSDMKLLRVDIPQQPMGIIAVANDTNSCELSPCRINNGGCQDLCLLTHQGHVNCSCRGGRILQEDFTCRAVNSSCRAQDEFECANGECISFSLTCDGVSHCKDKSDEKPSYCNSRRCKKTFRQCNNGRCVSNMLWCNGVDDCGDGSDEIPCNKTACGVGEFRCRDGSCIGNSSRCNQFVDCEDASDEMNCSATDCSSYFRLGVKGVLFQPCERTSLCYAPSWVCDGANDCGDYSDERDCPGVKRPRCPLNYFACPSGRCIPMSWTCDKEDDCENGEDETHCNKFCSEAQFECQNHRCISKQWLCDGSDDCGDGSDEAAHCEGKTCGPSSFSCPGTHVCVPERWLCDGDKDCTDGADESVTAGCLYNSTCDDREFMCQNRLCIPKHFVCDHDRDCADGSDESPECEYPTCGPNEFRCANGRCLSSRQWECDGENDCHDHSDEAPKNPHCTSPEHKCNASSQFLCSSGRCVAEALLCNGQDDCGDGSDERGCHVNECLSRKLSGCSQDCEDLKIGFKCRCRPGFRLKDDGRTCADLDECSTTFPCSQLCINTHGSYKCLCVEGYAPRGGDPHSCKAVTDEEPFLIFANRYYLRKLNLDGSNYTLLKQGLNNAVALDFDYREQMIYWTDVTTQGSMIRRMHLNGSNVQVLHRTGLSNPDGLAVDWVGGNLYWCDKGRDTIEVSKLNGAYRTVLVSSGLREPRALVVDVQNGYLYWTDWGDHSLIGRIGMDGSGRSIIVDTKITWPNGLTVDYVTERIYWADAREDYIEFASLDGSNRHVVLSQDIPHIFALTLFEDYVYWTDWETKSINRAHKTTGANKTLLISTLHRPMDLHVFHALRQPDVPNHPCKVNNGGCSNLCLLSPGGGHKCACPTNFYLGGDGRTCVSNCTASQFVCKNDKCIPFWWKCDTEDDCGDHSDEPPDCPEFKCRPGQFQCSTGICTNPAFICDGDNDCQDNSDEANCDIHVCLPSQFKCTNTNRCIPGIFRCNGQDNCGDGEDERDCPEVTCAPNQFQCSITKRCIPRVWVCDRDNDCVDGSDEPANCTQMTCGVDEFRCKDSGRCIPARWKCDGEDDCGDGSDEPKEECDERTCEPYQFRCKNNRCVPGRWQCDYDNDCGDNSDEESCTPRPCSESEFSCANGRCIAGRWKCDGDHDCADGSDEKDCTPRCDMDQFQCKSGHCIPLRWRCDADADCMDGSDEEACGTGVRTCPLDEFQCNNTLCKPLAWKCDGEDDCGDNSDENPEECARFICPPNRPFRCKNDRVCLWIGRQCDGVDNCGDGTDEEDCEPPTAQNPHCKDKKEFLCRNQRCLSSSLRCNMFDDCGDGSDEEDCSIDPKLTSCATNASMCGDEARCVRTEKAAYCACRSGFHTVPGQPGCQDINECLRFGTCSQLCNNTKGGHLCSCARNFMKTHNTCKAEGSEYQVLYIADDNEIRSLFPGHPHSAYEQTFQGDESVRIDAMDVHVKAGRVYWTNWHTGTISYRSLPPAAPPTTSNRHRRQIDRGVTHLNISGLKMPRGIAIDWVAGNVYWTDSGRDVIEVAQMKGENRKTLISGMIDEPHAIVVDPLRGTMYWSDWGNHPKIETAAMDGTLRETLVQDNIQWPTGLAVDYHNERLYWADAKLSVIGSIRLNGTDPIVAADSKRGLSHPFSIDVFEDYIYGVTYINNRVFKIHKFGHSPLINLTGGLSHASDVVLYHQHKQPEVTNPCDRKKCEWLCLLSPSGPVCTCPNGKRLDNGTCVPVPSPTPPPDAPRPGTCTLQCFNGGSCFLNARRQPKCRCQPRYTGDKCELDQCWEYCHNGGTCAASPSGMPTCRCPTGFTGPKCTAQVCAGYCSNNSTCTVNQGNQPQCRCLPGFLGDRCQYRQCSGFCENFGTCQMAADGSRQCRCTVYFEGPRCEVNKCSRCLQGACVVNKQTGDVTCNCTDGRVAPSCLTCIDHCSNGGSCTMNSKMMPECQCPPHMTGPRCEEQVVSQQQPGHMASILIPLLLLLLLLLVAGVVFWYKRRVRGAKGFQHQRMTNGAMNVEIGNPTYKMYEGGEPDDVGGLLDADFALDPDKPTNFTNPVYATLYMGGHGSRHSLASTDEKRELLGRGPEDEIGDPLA

Turning to “syndapin-2 (from UniProt Q9WVE8 1-486) (natural protein)”, the PLA dots per cell (dots per cell) worked out at 250.

B1: apolipoprotein E (ligand)
chain: EGEPEVTDQLEWQSNQPWEQALNRFWDYLRWVQTLSDQVQEELQSSQVTQELTALMEDTMTEVKAYKKELEEQLGPVAEETRARLGKEVQAAQARLGADMEDLRNRLGQYRNEVHTMLGQSTEEIRARLSTHLRKMRKRLMRDAEDLQKRLAVYKAGAREGAERGVSAIRERLGPLVEQGRQRTANLGAGAAQPLRDRAQAFGDRIRGRLEEVGNQARDRLEEVREHMEEVRSKMEEQTQQIRLQAEIFQARLKGWFEPIVEDMHRQWANLMEKIQASVATNPIITPVAQENQ
For B1, the PLA dots per cell (dots per cell) stood at 80.
